According to the supplement of paper PMC10065799, “High-throughput profiling of sequence recognition by tyrosine kinases and SH2 domains using bacterial peptide display” (eLife, 2023):

Columns and labels:
Fes = Fes (UniProt P07332); test: phosphorylation enrichment, bacterial display (enrichment ratio); higher = better substrate or ligand; peptides without Tyr show the background
MERTK = MERTK (UniProt Q12866); test: as above
Hck = Hck (UniProt P08631); test: as above
FGFR1 = FGFR1 (UniProt P11362); test: as above
Chain of FGFR1 (P11362 whole entry, looked up): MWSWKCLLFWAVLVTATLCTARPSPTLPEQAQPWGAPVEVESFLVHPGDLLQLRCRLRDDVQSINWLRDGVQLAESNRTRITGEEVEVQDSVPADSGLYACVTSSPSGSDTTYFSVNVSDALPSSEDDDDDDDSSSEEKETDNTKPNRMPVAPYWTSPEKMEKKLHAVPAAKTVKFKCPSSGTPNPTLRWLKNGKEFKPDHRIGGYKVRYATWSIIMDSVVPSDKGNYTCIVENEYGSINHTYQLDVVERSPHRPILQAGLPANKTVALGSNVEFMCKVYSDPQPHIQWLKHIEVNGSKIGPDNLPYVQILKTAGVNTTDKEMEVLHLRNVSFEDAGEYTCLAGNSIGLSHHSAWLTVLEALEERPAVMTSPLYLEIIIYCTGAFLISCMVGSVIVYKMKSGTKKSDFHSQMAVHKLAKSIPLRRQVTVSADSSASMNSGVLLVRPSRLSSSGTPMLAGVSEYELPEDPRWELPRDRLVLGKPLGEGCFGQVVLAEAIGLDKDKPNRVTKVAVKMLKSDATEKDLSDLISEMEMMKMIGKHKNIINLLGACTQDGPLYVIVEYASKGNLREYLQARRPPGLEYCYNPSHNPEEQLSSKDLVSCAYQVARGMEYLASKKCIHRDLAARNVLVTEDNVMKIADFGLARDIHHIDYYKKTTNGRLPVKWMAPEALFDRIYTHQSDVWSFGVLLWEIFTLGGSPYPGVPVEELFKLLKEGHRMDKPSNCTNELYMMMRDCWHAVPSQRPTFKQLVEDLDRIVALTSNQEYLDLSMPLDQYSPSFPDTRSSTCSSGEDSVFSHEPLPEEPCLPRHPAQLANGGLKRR

Fyn = Fyn (UniProt P06241); test: as above
Chain of Fyn (P06241 whole entry, looked up): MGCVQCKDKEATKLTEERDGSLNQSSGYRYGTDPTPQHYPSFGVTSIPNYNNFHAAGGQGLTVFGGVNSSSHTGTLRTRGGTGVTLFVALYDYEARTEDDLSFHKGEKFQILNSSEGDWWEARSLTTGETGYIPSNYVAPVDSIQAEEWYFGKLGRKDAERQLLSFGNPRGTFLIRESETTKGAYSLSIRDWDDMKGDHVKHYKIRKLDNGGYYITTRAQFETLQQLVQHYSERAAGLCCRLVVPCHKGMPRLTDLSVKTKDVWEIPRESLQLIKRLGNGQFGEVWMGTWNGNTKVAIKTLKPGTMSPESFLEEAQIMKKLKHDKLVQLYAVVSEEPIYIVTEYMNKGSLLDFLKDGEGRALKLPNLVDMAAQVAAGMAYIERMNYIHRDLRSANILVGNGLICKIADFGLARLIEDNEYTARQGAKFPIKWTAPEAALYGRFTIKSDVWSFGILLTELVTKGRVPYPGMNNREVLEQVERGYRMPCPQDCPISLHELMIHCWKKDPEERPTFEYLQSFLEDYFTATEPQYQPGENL

EPHB1 = EPHB1 (UniProt P54762); test: as above
c-Src = test: as above
Fer (mouse) = test: as above
Jak2 = Jak2 (UniProt O60674); test: as above
AncSZ = test: as above
EPHB2 = EPHB2 (UniProt P29323); test: as above
Chain of EPHB2 (P29323 whole entry, looked up): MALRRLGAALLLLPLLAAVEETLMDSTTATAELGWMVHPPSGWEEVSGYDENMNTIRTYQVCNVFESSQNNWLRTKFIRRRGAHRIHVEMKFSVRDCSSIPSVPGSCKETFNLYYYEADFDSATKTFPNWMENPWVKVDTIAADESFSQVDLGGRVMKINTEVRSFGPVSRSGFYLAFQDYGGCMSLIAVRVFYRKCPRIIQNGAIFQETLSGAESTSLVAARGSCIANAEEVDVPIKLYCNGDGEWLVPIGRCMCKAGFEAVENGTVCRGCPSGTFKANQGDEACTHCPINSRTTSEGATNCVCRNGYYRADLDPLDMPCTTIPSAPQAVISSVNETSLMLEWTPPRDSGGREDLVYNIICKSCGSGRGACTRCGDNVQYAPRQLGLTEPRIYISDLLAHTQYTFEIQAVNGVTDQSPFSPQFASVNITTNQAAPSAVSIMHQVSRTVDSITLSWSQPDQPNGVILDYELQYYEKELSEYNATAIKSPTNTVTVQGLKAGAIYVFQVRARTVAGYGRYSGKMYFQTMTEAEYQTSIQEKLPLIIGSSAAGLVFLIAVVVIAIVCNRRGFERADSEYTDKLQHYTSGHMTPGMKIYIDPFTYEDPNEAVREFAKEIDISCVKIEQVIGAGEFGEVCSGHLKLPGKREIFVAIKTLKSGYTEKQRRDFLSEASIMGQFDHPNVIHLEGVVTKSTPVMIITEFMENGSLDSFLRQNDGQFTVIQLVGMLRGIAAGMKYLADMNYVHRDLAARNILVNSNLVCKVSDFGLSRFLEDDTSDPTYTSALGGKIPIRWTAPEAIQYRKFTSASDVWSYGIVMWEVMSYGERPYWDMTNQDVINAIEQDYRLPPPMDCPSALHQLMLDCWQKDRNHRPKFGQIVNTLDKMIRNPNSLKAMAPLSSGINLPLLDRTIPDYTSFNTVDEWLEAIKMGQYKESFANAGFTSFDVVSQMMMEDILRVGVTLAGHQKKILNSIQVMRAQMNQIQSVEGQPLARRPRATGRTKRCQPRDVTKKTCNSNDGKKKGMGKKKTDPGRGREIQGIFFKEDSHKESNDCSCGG

FGFR3 = FGFR3 (UniProt P22607); test: as above
Chain of FGFR3 (P22607 whole entry, looked up): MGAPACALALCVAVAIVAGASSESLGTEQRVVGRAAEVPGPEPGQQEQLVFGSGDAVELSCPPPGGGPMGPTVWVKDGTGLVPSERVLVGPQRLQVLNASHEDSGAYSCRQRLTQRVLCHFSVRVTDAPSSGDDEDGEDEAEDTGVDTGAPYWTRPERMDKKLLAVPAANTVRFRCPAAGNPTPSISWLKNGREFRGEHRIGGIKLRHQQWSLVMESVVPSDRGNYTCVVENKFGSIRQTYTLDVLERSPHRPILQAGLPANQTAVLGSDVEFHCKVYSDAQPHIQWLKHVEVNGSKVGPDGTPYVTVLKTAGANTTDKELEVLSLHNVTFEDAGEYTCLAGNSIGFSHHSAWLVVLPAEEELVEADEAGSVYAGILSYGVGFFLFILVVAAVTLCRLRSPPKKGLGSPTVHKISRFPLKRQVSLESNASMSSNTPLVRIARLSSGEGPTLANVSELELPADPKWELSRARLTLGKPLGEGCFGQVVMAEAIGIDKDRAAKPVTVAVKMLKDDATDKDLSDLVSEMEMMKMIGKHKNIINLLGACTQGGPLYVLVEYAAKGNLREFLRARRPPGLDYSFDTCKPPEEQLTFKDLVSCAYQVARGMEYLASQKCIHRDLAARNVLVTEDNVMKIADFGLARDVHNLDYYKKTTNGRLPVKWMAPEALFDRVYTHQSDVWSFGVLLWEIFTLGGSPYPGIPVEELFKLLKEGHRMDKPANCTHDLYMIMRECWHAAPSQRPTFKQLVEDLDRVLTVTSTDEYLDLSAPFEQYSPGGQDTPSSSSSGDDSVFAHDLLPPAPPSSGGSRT

c-Abl (mouse) = test: as above
SHP2-C SH2 = test: SH2 binding enrichment of the phosphorylated peptide, bacterial display (enrichment ratio); higher = better substrate or ligand; peptides without Tyr show the background
Grb2 SH2 = Grb2 SH2 (UniProt P62993); test: as above
Chain of Grb2 SH2 (P62993 whole entry, looked up): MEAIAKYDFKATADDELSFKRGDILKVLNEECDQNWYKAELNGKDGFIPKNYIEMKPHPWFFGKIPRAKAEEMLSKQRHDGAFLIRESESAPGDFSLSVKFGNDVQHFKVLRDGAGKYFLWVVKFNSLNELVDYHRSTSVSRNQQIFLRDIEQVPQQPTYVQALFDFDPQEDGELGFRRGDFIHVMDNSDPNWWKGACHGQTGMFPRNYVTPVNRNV

c-Src SH2 = test: as above
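Throughout, for SH2 binding enrichment of the phosphorylated peptide, bacterial display: peptide library displayed on the E. coli surface as eCPX fusions, selected cells deep-sequenced, score is each peptide's frequency after selection divided by its frequency in the input.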
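Throughout, for phosphorylation enrichment, bacterial display: 11-residue human phosphosite peptides and single-mutation variants displayed on the E. coli surface, counted by deep sequencing, each peptide's frequency after selection divided by its frequency in the unselected input library; frequency after pTyr selection over input frequency; kinase dosed for 20-30% of maximal phosphorylation in three min.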

Chain of Fes (P07332 whole entry, looked up): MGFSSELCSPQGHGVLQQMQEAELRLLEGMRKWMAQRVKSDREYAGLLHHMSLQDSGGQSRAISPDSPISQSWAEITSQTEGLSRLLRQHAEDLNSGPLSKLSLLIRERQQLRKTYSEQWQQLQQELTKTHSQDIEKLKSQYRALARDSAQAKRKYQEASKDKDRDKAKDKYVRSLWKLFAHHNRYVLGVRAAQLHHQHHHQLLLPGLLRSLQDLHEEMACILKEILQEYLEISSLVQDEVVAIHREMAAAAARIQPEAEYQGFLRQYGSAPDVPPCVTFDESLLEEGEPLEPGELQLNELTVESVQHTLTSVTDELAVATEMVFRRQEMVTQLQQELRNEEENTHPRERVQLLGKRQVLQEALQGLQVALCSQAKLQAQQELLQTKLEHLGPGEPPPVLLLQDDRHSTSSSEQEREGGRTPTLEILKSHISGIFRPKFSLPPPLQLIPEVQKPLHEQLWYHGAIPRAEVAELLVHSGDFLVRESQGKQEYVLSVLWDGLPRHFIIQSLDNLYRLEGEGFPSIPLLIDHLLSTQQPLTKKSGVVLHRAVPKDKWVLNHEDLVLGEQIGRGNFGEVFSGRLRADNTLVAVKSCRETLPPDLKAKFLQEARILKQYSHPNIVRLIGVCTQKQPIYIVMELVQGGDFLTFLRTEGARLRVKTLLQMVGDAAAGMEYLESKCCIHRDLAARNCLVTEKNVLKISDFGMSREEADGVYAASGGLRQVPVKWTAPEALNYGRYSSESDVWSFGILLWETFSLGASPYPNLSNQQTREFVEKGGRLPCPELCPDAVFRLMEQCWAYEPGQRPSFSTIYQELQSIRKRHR
Chain of Hck (P08631 whole entry, looked up): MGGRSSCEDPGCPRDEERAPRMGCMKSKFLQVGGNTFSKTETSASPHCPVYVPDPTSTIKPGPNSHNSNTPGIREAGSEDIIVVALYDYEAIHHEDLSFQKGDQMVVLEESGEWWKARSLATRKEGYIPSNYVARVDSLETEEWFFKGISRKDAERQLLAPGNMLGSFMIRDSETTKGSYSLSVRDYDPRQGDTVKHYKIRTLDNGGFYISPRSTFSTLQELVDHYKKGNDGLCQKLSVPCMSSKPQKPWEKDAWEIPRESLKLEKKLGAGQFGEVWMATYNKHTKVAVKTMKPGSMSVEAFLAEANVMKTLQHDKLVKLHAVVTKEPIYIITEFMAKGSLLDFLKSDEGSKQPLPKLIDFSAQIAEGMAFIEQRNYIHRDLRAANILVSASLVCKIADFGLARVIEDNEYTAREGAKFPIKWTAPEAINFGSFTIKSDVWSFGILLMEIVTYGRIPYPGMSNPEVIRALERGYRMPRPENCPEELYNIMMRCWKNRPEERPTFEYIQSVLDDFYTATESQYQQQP

Work on QRDSSYFWEIE [RAF1_Y340_YF] yielded a phosphorylation enrichment (Fes) of 1.92, a phosphorylation enrichment (MERTK) of 0.774 and a phosphorylation enrichment (Hck) of 0.934. It also gave a phosphorylation enrichment (FGFR1) of 1.04, a phosphorylation enrichment (Fyn) of 0.966 and a phosphorylation enrichment (EPHB1) of 0.776. It also gave a phosphorylation enrichment (c-Src) of 0.712, a phosphorylation enrichment (Fer (mouse)) of 0.813 and a phosphorylation enrichment (Jak2) of 3.31. For the same sequence, the phosphorylation enrichment (AncSZ) was 2.48, the phosphorylation enrichment (EPHB2) was 0.968 and the phosphorylation enrichment (FGFR3) was 1.25. For the same sequence, the phosphorylation enrichment (c-Abl (mouse)) was 0.989, the SH2 binding enrichment (SHP2-C SH2) was 0.917 and the SH2 binding enrichment (Grb2 SH2) was 0.936. For the same sequence, the SH2 binding enrichment (c-Src SH2) was 0.98.
Work on HFGNNYRDVLQ [MACC1_Y803_YF] yielded a phosphorylation enrichment (Fes) of 1.72, a phosphorylation enrichment (MERTK) of 0.64 and a phosphorylation enrichment (Hck) of 0.594. It also gave a phosphorylation enrichment (FGFR1) of 0.711, a phosphorylation enrichment (Fyn) of 0.614 and a phosphorylation enrichment (EPHB1) of 0.648. The phosphorylation enrichment (c-Src) was 0.65, the phosphorylation enrichment (Fer (mouse)) was 0.558 and the phosphorylation enrichment (Jak2) was 1.06. For the same sequence, the phosphorylation enrichment (AncSZ) was 0.851, the phosphorylation enrichment (EPHB2) was 0.627 and the phosphorylation enrichment (FGFR3) was 0.68. It also gave a phosphorylation enrichment (c-Abl (mouse)) of 0.848, an SH2 binding enrichment (SHP2-C SH2) of 2.13 and an SH2 binding enrichment (Grb2 SH2) of 0.909. It also gave an SH2 binding enrichment (c-Src SH2) of 0.472.
Work on LIHTKYPQLLP [AHCY_Y143] yielded a phosphorylation enrichment (Fes) of 0.81, a phosphorylation enrichment (MERTK) of 0.6 and a phosphorylation enrichment (Hck) of 0.428. For the same sequence, the phosphorylation enrichment (FGFR1) was 0.639, the phosphorylation enrichment (Fyn) was 0.449 and the phosphorylation enrichment (EPHB1) was 0.642. The phosphorylation enrichment (c-Src) was 0.379, the phosphorylation enrichment (Fer (mouse)) was 0.395 and the phosphorylation enrichment (Jak2) was 0.679. It also gave a phosphorylation enrichment (AncSZ) of 0.808, a phosphorylation enrichment (EPHB2) of 0.562 and a phosphorylation enrichment (FGFR3) of 0.573. The phosphorylation enrichment (c-Abl (mouse)) was 0.575, the SH2 binding enrichment (SHP2-C SH2) was 0.725 and the SH2 binding enrichment (Grb2 SH2) was 0.54. The SH2 binding enrichment (c-Src SH2) was 0.42.
SVETPYVSVTF [NDRG2_Y47_G48V] gave a phosphorylation enrichment (Fes) of 1.19, a phosphorylation enrichment (MERTK) of 0.47 and a phosphorylation enrichment (Hck) of 0.662. The phosphorylation enrichment (FGFR1) was 0.897, the phosphorylation enrichment (Fyn) was 0.784 and the phosphorylation enrichment (EPHB1) was 0.632. For the same sequence, the phosphorylation enrichment (c-Src) was 2.05, the phosphorylation enrichment (Fer (mouse)) was 1.56 and the phosphorylation enrichment (Jak2) was 1.1. It also gave a phosphorylation enrichment (AncSZ) of 1.26, a phosphorylation enrichment (EPHB2) of 0.629 and a phosphorylation enrichment (FGFR3) of 0.936. The phosphorylation enrichment (c-Abl (mouse)) was 0.844, the SH2 binding enrichment (SHP2-C SH2) was 0.827 and the SH2 binding enrichment (Grb2 SH2) was 0.632. It also gave an SH2 binding enrichment (c-Src SH2) of 0.485.
RFLRGYRQDAF [HLA-A_Y137_YF] was tested, and the phosphorylation enrichment (Fes) was 1.01, the phosphorylation enrichment (MERTK) was 0.799 and the phosphorylation enrichment (Hck) was 0.802. For the same sequence, the phosphorylation enrichment (FGFR1) was 0.569, the phosphorylation enrichment (Fyn) was 0.489 and the phosphorylation enrichment (EPHB1) was 0.742. It also gave a phosphorylation enrichment (c-Src) of 0.413, a phosphorylation enrichment (Fer (mouse)) of 0.658 and a phosphorylation enrichment (Jak2) of 0.498. The phosphorylation enrichment (AncSZ) was 0.644, the phosphorylation enrichment (EPHB2) was 0.47 and the phosphorylation enrichment (FGFR3) was 0.677. The phosphorylation enrichment (c-Abl (mouse)) was 0.708, the SH2 binding enrichment (SHP2-C SH2) was 0.888 and the SH2 binding enrichment (Grb2 SH2) was 1. The SH2 binding enrichment (c-Src SH2) was 0.559.
KNSFKYYMSDD [ATRX_Y203_C200S] showed a phosphorylation enrichment (Fes) of 1.02, a phosphorylation enrichment (MERTK) of 0.479 and a phosphorylation enrichment (Hck) of 0.477. For the same sequence, the phosphorylation enrichment (FGFR1) was 0.486, the phosphorylation enrichment (Fyn) was 0.468 and the phosphorylation enrichment (EPHB1) was 0.507. The phosphorylation enrichment (c-Src) was 0.44, the phosphorylation enrichment (Fer (mouse)) was 0.405 and the phosphorylation enrichment (Jak2) was 0.947. For the same sequence, the phosphorylation enrichment (AncSZ) was 0.92, the phosphorylation enrichment (EPHB2) was 0.531 and the phosphorylation enrichment (FGFR3) was 0.604. It also gave a phosphorylation enrichment (c-Abl (mouse)) of 0.671, an SH2 binding enrichment (SHP2-C SH2) of 0.661 and an SH2 binding enrichment (Grb2 SH2) of 0.848. For the same sequence, the SH2 binding enrichment (c-Src SH2) was 0.708.
VDDEIYFFRKP [PBRM1_Y1289_YF] was tested, and the phosphorylation enrichment (Fes) was 1.4, the phosphorylation enrichment (MERTK) was 0.796 and the phosphorylation enrichment (Hck) was 5.24. For the same sequence, the phosphorylation enrichment (FGFR1) was 1.32, the phosphorylation enrichment (Fyn) was 6.18 and the phosphorylation enrichment (EPHB1) was 0.693. For the same sequence, the phosphorylation enrichment (c-Src) was 5.57, the phosphorylation enrichment (Fer (mouse)) was 0.652 and the phosphorylation enrichment (Jak2) was 1.25. For the same sequence, the phosphorylation enrichment (AncSZ) was 2.12, the phosphorylation enrichment (EPHB2) was 0.635 and the phosphorylation enrichment (FGFR3) was 1.32. It also gave a phosphorylation enrichment (c-Abl (mouse)) of 1.35, an SH2 binding enrichment (SHP2-C SH2) of 0.661 and an SH2 binding enrichment (Grb2 SH2) of 0.75. It also gave an SH2 binding enrichment (c-Src SH2) of 0.466.
With GNEEAYGRSHI [FAM171B_Y522] the phosphorylation enrichment (Fes) was 0.823, the phosphorylation enrichment (MERTK) was 0.455 and the phosphorylation enrichment (Hck) was 0.471. It also gave a phosphorylation enrichment (FGFR1) of 0.378, a phosphorylation enrichment (Fyn) of 0.425 and a phosphorylation enrichment (EPHB1) of 0.448. It also gave a phosphorylation enrichment (c-Src) of 0.471, a phosphorylation enrichment (Fer (mouse)) of 0.456 and a phosphorylation enrichment (Jak2) of 0.905. The phosphorylation enrichment (AncSZ) was 0.825, the phosphorylation enrichment (EPHB2) was 0.438 and the phosphorylation enrichment (FGFR3) was 0.575. For the same sequence, the phosphorylation enrichment (c-Abl (mouse)) was 0.706, the SH2 binding enrichment (SHP2-C SH2) was 0.801 and the SH2 binding enrichment (Grb2 SH2) was 0.796. The SH2 binding enrichment (c-Src SH2) was 0.444.
Work on KKLHEYNTQFQ [PIK3R1_Y452] yielded a phosphorylation enrichment (Fes) of 0.541, a phosphorylation enrichment (MERTK) of 0.348 and a phosphorylation enrichment (Hck) of 0.367. The phosphorylation enrichment (FGFR1) was 0.322, the phosphorylation enrichment (Fyn) was 0.39 and the phosphorylation enrichment (EPHB1) was 0.323. The phosphorylation enrichment (c-Src) was 0.42, the phosphorylation enrichment (Fer (mouse)) was 0.389 and the phosphorylation enrichment (Jak2) was 0.43. For the same sequence, the phosphorylation enrichment (AncSZ) was 0.55, the phosphorylation enrichment (EPHB2) was 0.385 and the phosphorylation enrichment (FGFR3) was 0.366. The phosphorylation enrichment (c-Abl (mouse)) was 0.477, the SH2 binding enrichment (SHP2-C SH2) was 0.86 and the SH2 binding enrichment (Grb2 SH2) was 1. It also gave an SH2 binding enrichment (c-Src SH2) of 0.592.
